{
  "source": "patent US20150160214A1",
  "about": "“Quantitation of Cellular Adhesion Dynamics Across Immobilized Receptors Under Rheological Shear Flow” (Mayo Foundation for Medical Education and Research, priority 2013, published 2015)",
  "assay_type_in_all_cases": "physicochemical",
  "key": {"[1]": {"test": "Conformational and thermodynamic classification of A1 domain variants (urea and thermal denaturation, CD, FL, ANS)", "experimental": "Circular dichroism measurements were performed on a Model No. 420C circular-dichroism spectrometer (Aviv Biomedical, Inc., Lakewood Township, N.J.). All fluorescence (FL) measurements were performed on a Fluorolog3 spectrofluorometer (HORIBA Jobin-Yvon, Edison, N.J.) equipped with a Model No. LF1-3751 temperature controller (Wavelength Electronics Inc., Bozeman, Mont.). Near- and far-ultraviolet (UV) circular dichroism (CD), intrinsic protein FL, and ANS (8-anilino naphthalene sulfonic acid) […] spectra were determined as described in Tischer et al. (19). Urea denaturation (monitored by far-UV CD) and thermal denaturation (monitored by far-UV CD, intrinsic protein FL, and ANS FL) were performed and analyzed as previously described (19,20). Acrylamide quenching of intrinsic tryptophan fluorescence was performed and analyzed as described in Tischer et al. (19). All spectra were collected at 20° C.\nThe effects of mutations on the thermodynamic stability of A1 (18) was determined and a framework that incorporated partial unfolding as a means for enhancing the binding affinity of A1 for GPIba was developed (17). Initially, urea-temperature phase diagram method were used for assessing the reversible thermodynamics of unfolding at various temperatures (18,21), and more recently thermal denaturations were used to assess kinetic irreversibility (20,22). The inventor employed these methods using a variety of spectroscopic observables that assess the conformation of these A1 domain variants as a function of temperature and urea.\nThe observables included the following: (1) Far-UV CD to assess secondary structure content; (2) Near-UV CD to assess tertiary structure content; (3) Intrinsic protein FL to assess solvent exposure of tyrosine and tryptophan residues; (4) Acrylamide quenching of tryptophan FL to assess local solvent exposure of the single tryptophan residue; and (5) Binding of the molten globule indicator-dye, ANS, to assess exposure of hydrophobic surface area.\nIn total, these studies have provided metrics that are able to classify the conformation of A1 into three types, based on biophysical spectroscopy, as follows:\nThe type 2B mutations R1306Q and I1309V and the type 2M mutation G1324S have previously been characterized in this conformational class (18). In addition, R1308L and I1372S also belong to this class.\nThe type 2M mutation A1437T and the type 2B mutation R1341Q belong to this class.\nThe type 2M mutations F1369I, E1359K, I1425F, S1285F, and R1374H, and the type 2B mutations H1268D, P1337L, V1316M, and V1314D, belong to this class."}, "[2]": {"test": "GdnHCl- and urea-induced unfolding at 25° C. by circular dichroism (Example 2)", "details": "CD", "experimental": "The thermodynamic stability of A1 and of RCAM A1 was determined from GdnHCl and urea induced unfolding measured via CD and FL at 25° Celsius (FIG. 14). […] Complete unfolding of A1 and of RCAM A1 occurs in GdnHCl but not in urea. However, in presence of urea, a small expansion of RCAM A1 compared to A1 in its intermediate state is observed.\nUrea and GdnHCl induced unfolding of A1 and of RCAM A1 at 25° Celsius was monitored via CD at 222 nm on an Aviv Biomedical Model 420C circular dichroism spectrometer. A 1 mm quartz cuvette and protein concentrations of 5 or 10 μM were used. Samples were equilibrated in their urea or GdnHCl containing buffer at 25° Celsius overnight. CD-signal was averaged for 5 to 10 min using an integration time of 1 s. CD-spectra were measured at 20° Celsius using 0.1 or 1 mm quartz cells with a step width of 1 nm between 190 and 260 nm with an integration time of 20 s and a bandwidth of 1 nm. CD-spectra in the near UV range (260-360 nm) were recorded using a 5 cm quartz cell with a 120 s integration time. Transition curves and protein spectra were corrected for the CD Signal of the corresponding buffer."}, "[3]": {"test": "Acrylamide quenching of tryptophan fluorescence (Stern-Volmer)", "experimental": "This was also confirmed via acrylamide induced tryotophan fluorescence quenching performed with an excitation wavelength of 295 nm.\nInitially a quenching determination was performed with disulfide-intact A1 at 20° Celsius and at 1° Celsius in order to distinguish between static and collisional quenching. […] Clear evidence for collisional quenching could be obtained for the A1-domain since the Stern-Volmer constant decreased from 2.6±0.03 to 2.2±0.03 M−1, FIG. 16A, ruling out a static quenching mechanism.\nAcrylamide quenching of tryptophan was performed using an excitation wavelength of 295 nm. After the addition of a certain amount of buffered acrylamide solution the protein solution was equilibrated for ˜5 min and then a fluorescence spectrum between 320 and 400 nm was recorded. Stern-Volmer constants were determined from the fluorescence intensity at 359 nm using the Stern-Volmer equation as described by Lakowicz (Lakowicz:2006)\nwhere KD is the Stern-Volmer quenching constant and KD-1 is the concentration of acrylamide at which F0/F=2 and 50% of the fluorescence intensity is quenched."}},
  "data": [
    {"substance": "A1-1238: Recombinant human vWF A1 domain, amino acids Q1238-P1471, with N-terminal 6×His-Tag, disulfide intact", "values": [
      {"measurement": "A1 domain Conformation", "setting": "[1]", "value": "N (N = “Native” (native structure with varying thermodynamic stability))"},
      {"measurement": "cm, I ⇄ D", "setting": "[2]; GdnHCl", "value": "4.40 ± 0.02", "unit": "M"},
      {"measurement": "cm, N ⇄ I", "setting": "[2]; GdnHCl", "value": "0.819 ± 0.006", "unit": "M"},
      {"measurement": "m-value, I ⇄ D", "setting": "[2]; GdnHCl", "value": "−6.66 ± 0.30", "unit": "kJ/mol/M"},
      {"measurement": "m-value, N ⇄ I", "setting": "[2]; GdnHCl", "value": "−18.67 ± 0.76", "unit": "kJ/mol/M"},
      {"measurement": "ΔG^0, I ⇄ D", "setting": "[2]; GdnHCl", "value": "7.003 ± 0.315", "unit": "kcal/mol"},
      {"measurement": "ΔG^0, N ⇄ I", "setting": "[2]; GdnHCl", "value": "3.654 ± 0.151", "unit": "kcal/mol"},
      {"measurement": "cm, I ⇄ D", "setting": "[2]; Urea", "value": "10.03 ± 0.19", "unit": "M"},
      {"measurement": "cm, N ⇄ I", "setting": "[2]; Urea", "value": "2.85 ± 0.02", "unit": "M"},
      {"measurement": "m-value, I ⇄ D", "setting": "[2]; Urea", "value": "−3.35 ± 0.62", "unit": "kJ/mol/M"},
      {"measurement": "m-value, N ⇄ I", "setting": "[2]; Urea", "value": "−4.70 ± 0.17", "unit": "kJ/mol/M"},
      {"measurement": "ΔG^0, I ⇄ D", "setting": "[2]; Urea", "value": "8.03 ± 1.49", "unit": "kcal/mol"},
      {"measurement": "ΔG^0, N ⇄ I", "setting": "[2]; Urea", "value": "3.203 ± 0.117", "unit": "kcal/mol"},
      {"measurement": "Stern-Volmer constant", "setting": "[3]; 2 M GdnHCl", "value": "6.0 ± 0.1", "unit": "M⁻¹"},
      {"measurement": "Stern-Volmer constant", "setting": "[3]; buffer, 1° Celsius", "value": "2.2 ± 0.03", "unit": "M⁻¹"},
      {"measurement": "Stern-Volmer constant", "setting": "[3]; buffer, 20° Celsius", "value": "2.6 ± 0.03", "unit": "M⁻¹"}
    ]}
  ]
}
